doi:10.1101/580712

Target: human Macrophage Expressed Gene-1 (MPEG-1) soluble ectodomain, wild type (human) (UniProt Q2M385)
Experiment: cryo-EM structure

With “human Macrophage Expressed Gene-1 (MPEG-1) soluble ectodomain, wild type (from UniProt Q2M385 17-653) (domain or fragment)” the stoichiometry N (subunits per ring) was 16.
